Measurements: patent US20260193348A1 (ANTENGENE BIOLOGICS, published 2026)
Positions count from the first letter of the chain named. Names may count otherwise. One block for each binder: values may come before it.

Assays:
[1] = biological target: T1, GPRC5D on MM.1S cells (human, UniProt Q9NZD1 1-345); assay: cell-based or functional assay
[2] = biological target: T2, CD3 on Jurkat cells (UniProt P07766 23-207; P04234 22-171; P09693 23-182); assay: FACS on Jurkat cells
T2 construct: whole, on cells; On the cell, CD3 stands in the TCR-CD3 complex; also called cluster of differentiation 3
Experimental: The binding affinities of the generated humanized Fab-scFv-Fab bispecific antibodies were determined by FACS analysis. […] (a) Jurkat cells were washed by Staining Buffer (PBS+1% BSA) in round bottom 96-well plate. [0833] (b) Antibody dilutions and cells were added to each well, incubated at 4 degrees for 1 hour. [0834] (c) Cells were spined down at 300 g for 3 minutes, and the supernatants were discarded. [0835] (d) Cells were washed with Staining Buffer. […] (e) Step (d) was repeated and the cells were incubated for 0.5 hours at 4 degrees with secondary antibody in Staining Buffer. [0837] (f) After incubation, step (d)-(e) were repeated. […] (g) Staining Buffer was added and fluorescence signals were recorded by flow cytometry.
The binding affinities of the generated humanized Fab-scFv-Fab bispecific antibodies were determined by FACS analysis. The ATG-Bis-40E9 described in Example 1 was used as positive control and hIgG1 isotype was used as negative control. The protocol for FACS analysis is described in Example 3.2 above.

[3] = biological target: T1, GPRC5D on MM.1S cells; assay: FACS on MM.1S cells
[4] = biological target: T1, GPRC5D on MM.1S cells; assay: cell-based or functional assay; remark: listed apart in the source

T1 sequence (Q9NZD1 whole entry): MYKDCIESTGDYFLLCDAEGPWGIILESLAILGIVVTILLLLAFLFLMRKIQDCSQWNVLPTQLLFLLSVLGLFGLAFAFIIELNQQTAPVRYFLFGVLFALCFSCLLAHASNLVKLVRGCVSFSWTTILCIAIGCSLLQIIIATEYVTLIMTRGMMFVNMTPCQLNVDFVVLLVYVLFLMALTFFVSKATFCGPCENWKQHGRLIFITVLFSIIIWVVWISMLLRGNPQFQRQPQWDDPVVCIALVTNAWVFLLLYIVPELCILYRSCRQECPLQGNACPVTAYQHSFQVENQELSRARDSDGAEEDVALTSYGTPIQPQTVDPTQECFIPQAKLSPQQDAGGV
T2 sequence (P07766 23-207, chain 1 of 3): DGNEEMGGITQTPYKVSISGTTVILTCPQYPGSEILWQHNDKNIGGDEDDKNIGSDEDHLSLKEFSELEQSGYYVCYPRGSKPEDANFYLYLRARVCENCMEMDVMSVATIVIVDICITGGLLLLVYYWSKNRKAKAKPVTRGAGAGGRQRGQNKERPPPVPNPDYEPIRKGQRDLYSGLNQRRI
T2 sequence (P04234 22-171, chain 2 of 3): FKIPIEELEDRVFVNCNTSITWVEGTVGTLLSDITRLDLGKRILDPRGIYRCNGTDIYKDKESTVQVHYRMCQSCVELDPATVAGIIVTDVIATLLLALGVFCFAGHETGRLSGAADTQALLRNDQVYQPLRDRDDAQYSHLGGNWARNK
T2 sequence (P09693 23-182, chain 3 of 3): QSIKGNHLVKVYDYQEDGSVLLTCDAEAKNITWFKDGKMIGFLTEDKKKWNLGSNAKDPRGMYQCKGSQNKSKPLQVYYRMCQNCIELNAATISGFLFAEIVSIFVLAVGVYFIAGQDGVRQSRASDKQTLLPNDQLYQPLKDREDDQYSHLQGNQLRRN

EC50, Jurkat-NFAT-Luciferase assay in the presence of MM.1S cells [1]: 0.24 nM
Top RLU, Jurkat-NFAT-Luciferase assay in the presence of MM.1S cells [1]: 362 RLU
Top signal [2]: 293 MFI
EC50 [3]: 3.7 nM
Top signal [3]: 2620 MFI
B1: Bis-108+147-S54R.H (bispecific antibody)
chain 1: EVQLVQSGAEVKKPGASVKVSCKASGYTFTSYVIHWVRQAPGQGLEWMGYFNPYNDGTKYNEEFKGRVTLTSDKSTSTAYMELRSLRSDDTAVYYCARGGVRRYFDVWGQGTTVTVSS
chain 2: EVQLVQSGAEVKKPGSSVKVSCKASGYTFTSYWMHWVRQAPGQCLEWMGNINPRSGATNYNEKFKSRVTLTVDKSTSTAYMELSSLRSEDTAVYYCARDRSSQYYFDYWGQGTTVTVSSGGGGSGGGGSGGGGSGGGGSDIVMTQSPDSLAVSLGERATINCKSSQSLLNSRSRKNYLAWYQQKPGQPPKLLIYWASTRESGVPDRFSGSGSGTDFTLTISSLQAEDVAVYYCTQSYTLRTFGCGTKVEIK
chain 3: DIQMTQSPSSLSASVGDRVTITCRASQDIGSNLNWLQQKPGKAIKRLIYATFGLDSGVPSRFSGSRSGTDFTLTISSLQPEDFATYYCQQYASFPYTFGGGTKVEIK
IC50 of T-cell dependent cytotoxicity on MM.1S cells [4]: 1.25 nM
Top (%) target cell killing, MM.1S cells [4]: 110%

EC50, Jurkat-NFAT-Luciferase assay in the presence of MM.1S cells [1]: 0.26 nM
Top RLU, Jurkat-NFAT-Luciferase assay in the presence of MM.1S cells [1]: 358 RLU
Top signal [2]: 141 MFI
EC50 [3]: 1.29 nM
Top signal [3]: 1820 MFI
B2: Bis-108+147-S102Q.H (bispecific antibody)
chain 1: B1 chain 1
chain 2: B1 chain 2 with R54S, S102Q
chain 3: B1 chain 3
IC50 of T-cell dependent cytotoxicity on MM.1S cells [4]: 2.78 nM
Top (%) target cell killing, MM.1S cells [4]: 131%
